We go through one molecule from US20200332005A1 (I MAB, published 2020).

The target of test [1] is T1, recombinant human CD73 protein (human, UniProt P21589 27-547).
T1 construct: Bought (Novoprotein); also called recombinant CD73 protein; soluble CD73
T1 sequence: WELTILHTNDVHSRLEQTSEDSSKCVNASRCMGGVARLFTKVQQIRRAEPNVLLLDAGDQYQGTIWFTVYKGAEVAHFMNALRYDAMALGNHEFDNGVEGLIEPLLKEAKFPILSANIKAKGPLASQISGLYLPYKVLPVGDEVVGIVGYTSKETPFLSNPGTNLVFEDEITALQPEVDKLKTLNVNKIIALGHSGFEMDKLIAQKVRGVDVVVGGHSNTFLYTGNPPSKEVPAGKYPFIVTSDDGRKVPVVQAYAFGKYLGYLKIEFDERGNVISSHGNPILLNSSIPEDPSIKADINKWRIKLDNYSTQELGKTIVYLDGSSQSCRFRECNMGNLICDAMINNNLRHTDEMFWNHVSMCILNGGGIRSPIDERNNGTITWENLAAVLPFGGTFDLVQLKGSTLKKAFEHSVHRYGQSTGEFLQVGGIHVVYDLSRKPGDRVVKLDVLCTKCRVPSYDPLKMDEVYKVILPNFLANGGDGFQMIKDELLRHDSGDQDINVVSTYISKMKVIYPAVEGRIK
In words: SPR, Biacore T200, antibody captured by anti-human Fc IgG, antigen as analyte, 1:1 model, 25 C. The protocol:
For the binding assay, the Biacore T200 system was used through human antibody capture approach. The anti-human Fc lgG were immobilized on CMS sensor chip according to the manufactory's instruction. The test antibody was injected and captured by the immobilized anti-human Fc lgG. And then serial concentrations of antigen was individually injected, and the binding profile was recorded for each concentration antigen analyte, respectively. The assay system was regenerated by injection of 10 mM Glycine-HCl pH 1.5 for 30 seconds. The running buffer was HBS-EP+(10 mM HEPES, pH 7.4, 150 mM NaCl, 3 mM EDTA and 0.05% P20). The assay temperature was 25° C., and the association and dissociation time were 180 and 600 seconds, respectively.
Background: SPR reads the build-up and loss of mass on a sensor chip optically.

The target in test [2] is T1, recombinant human CD73 protein. In words: cell-based or functional assay.
The target in test [3] is T2, human CD73 on the cell surface (human, UniProt P21589 27-549).
T2 construct: also called cell surface CD73; CD73 on SK-OV-3 cells
T2 sequence: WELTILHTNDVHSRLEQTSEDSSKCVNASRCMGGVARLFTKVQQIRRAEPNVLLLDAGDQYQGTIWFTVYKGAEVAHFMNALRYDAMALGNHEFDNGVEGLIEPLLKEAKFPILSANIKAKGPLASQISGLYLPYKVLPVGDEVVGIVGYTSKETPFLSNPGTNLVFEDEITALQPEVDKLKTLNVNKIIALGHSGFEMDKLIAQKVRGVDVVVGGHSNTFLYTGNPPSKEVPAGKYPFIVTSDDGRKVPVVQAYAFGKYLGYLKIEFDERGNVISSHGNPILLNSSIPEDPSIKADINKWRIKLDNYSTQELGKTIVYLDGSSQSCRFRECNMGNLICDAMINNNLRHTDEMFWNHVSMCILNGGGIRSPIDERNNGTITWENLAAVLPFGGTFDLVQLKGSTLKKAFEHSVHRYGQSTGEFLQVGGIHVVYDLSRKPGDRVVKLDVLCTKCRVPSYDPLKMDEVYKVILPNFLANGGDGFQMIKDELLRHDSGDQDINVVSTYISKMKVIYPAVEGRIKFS
In words: flow cytometry on SK-OV-3 cells. The protocol: Binding was measured using an FACSCanto (Becton-Dickinson), and the results are presented in FIG. 8 (see also the table below).
(A flow cytometer gives signals particle by particle.)

The target in test [4] is T2, human CD73 on the cell surface. In words: cell-based or functional assay.

B1: Hu101-25 (antibody, V domains shown)
VH: EVQLQESGPGLVKPSETLSLTCAVSGYSISSGYYWNWIRQPPGKGLEWIGYINYGGSNGYNPSLKSRVTISRDTSKNQFSLKLSSVTAADTAVYYCARDYDAYYEALDDWGQGTTVTVSS
VL: EIVLSQSPATLSLSPGERATLSCRASSRVNYMHWYQQKPGQSPRPWISATSNLASGVPARFSGSGSGTSYTLTISSLEPEDFAVYYCQQWSSNPPTFGGGTKVEIK
notes: also called humanized anti-CD73 antibody Hu101-25
Usually Kd stands for the free concentration of one partner at which half of the binding sites on the other are occupied at equilibrium, for simple one-to-one binding. As usually defined, the koff is the rate constant with which the complex falls apart. One may read the kon as the rate constant with which the complex forms. Broadly, the EC50 is the concentration needed to bring the measured effect to its halfway point. A lower EC50 goes with an effect from little substance. For the molecule B1, in test [1], the dissociation constant Kd stood at 0.747 nM, the off-rate constant (koff) was 5.51e-05 s⁻¹ and the kon came out at 73700 M⁻¹ s⁻¹. Also, the “IC50 (nM), inhibition of recombinant CD73 enzymatic activity” value in test [2] was 4.72 nM. Besides, the EC50 in test [3] worked out at 2.38 nM. In test [4], the “IC50 (nM), inhibition of CD73 enzymatic activity on SK-OV-3 cells” value is 2.98 nM.
